# Source: paper PMC12234471, “The apicoplast localized isocitrate dehydrogenase is needed for de novo fatty acid synthesis in the apicoplast of Toxoplasma gondii” (Frontiers in Cellular and Infection Microbiology, 2025)
# B1: TgICDH1 (Toxoplasma gondii) (protein)
# chain: QRIKVDQPVVEMDGDEMARVIWAMIKEKLILPYLDIPLMYYDLSIQHRDKTDDQVTIDAALAIKRHGVGVKCATITPDEQRVKEFNLKKMWKSPNATIRNTLDGTIFRAPILMKNVPRLVPSWTKPIIIGRHAHADQYKALDFTVDKPGRFVMSFIPADKSNPEVHEVYEFKGGGVALGMYNTDASIKGFAHSCFQYALDQKMPLYLSTKNTVLKKYDGRFKDIFQTIYEKEYKQKFEEAGLWYEHRLIDDMVAQAIKSSGGFVWACKNYDGDVQSDVVAQGYGSLGLMTSVLVCPDGKTIEAEAAHGTVTRHYRQYQKGIKTSTNPIASIYAWTRSLGHRAKLDNNQKLKEFVEALEDACVETVEAGFMTKDLALAIKGDKLTDRDYLCTEDFMDKLARVAERKLLERQIISKA
# notes: truncation AA180-594 (leader peptide removed), cloned from RH cDNA in pET-sumo, His-tag resin purified from E. coli BL21
# Substrate: O=C(O)C[C@H](C(=O)O)[C@@H](O)C(=O)O
# Assay: purified protein
# Type: biochemical, Toxoplasma gondii
# Conditions: NADP+ co-substrate; Solarbio ICDHm kit
protein,measurement,value
B1,Km,160.7 µM
